{
  "source": "paper PMC12416549",
  "about": "(2024)",
  "data": [
    {"target": "T1, TNFR1 (Homo sapiens, UniProt P19438)", "T1 chain": "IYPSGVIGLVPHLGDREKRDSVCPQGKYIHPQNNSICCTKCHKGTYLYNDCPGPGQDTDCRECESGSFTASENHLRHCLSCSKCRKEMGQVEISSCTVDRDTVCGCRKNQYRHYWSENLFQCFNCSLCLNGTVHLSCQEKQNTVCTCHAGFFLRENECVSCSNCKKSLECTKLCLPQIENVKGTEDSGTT", "assay": "yeast display SC50", "units": {"apparent Kd (screen)": "nM"}, "values": [
      {"binder": "K17A (designed binder) SMEEEVEKAAKEYEKKAKEAIEKHLEKLKAKDKEAAERFLKELEEAAKEYAKDEAKTMSEEEAKRRAKKYKEKVLLSELSEEEQKEIKEAEEKLVRTILKYVEEAAK", "apparent Kd (screen)": 1.86},
      {"binder": "E62Y (designed binder) SMEEEVEKAAKEYEKKKKEAIEKHLEKLKAKDKEAAERFLKELEEAAKEYAKDEAKTMSEEYAKRRAKKYKEKVLLSELSEEEQKEIKEAEEKLVRTILKYVEEAAK", "apparent Kd (screen)": 0.869},
      {"binder": "E62L (designed binder) SMEEEVEKAAKEYEKKKKEAIEKHLEKLKAKDKEAAERFLKELEEAAKEYAKDEAKTMSEELAKRRAKKYKEKVLLSELSEEEQKEIKEAEEKLVRTILKYVEEAAK", "apparent Kd (screen)": 0.653},
      {"binder": "K71A (designed binder) SMEEEVEKAAKEYEKKKKEAIEKHLEKLKAKDKEAAERFLKELEEAAKEYAKDEAKTMSEEEAKRRAKKYAEKVLLSELSEEEQKEIKEAEEKLVRTILKYVEEAAK", "apparent Kd (screen)": 0.446},
      {"binder": "E60A (designed binder) SMEEEVEKAAKEYEKKKKEAIEKHLEKLKAKDKEAAERFLKELEEAAKEYAKDEAKTMSAEEAKRRAKKYKEKVLLSELSEEEQKEIKEAEEKLVRTILKYVEEAAK", "apparent Kd (screen)": 0.956},
      {"binder": "A106C (designed binder) SMEEEVEKAAKEYEKKKKEAIEKHLEKLKAKDKEAAERFLKELEEAAKEYAKDEAKTMSEEEAKRRAKKYKEKVLLSELSEEEQKEIKEAEEKLVRTILKYVEEACK", "apparent Kd (screen)": 3},
      {"binder": "H24T (designed binder) SMEEEVEKAAKEYEKKKKEAIEKTLEKLKAKDKEAAERFLKELEEAAKEYAKDEAKTMSEEEAKRRAKKYKEKVLLSELSEEEQKEIKEAEEKLVRTILKYVEEAAK", "apparent Kd (screen)": 1.16},
      {"binder": "A36W (designed binder) SMEEEVEKAAKEYEKKKKEAIEKHLEKLKAKDKEAWERFLKELEEAAKEYAKDEAKTMSEEEAKRRAKKYKEKVLLSELSEEEQKEIKEAEEKLVRTILKYVEEAAK", "apparent Kd (screen)": 0.446},
      {"binder": "A47P (designed binder) SMEEEVEKAAKEYEKKKKEAIEKHLEKLKAKDKEAAERFLKELEEAPKEYAKDEAKTMSEEEAKRRAKKYKEKVLLSELSEEEQKEIKEAEEKLVRTILKYVEEAAK", "apparent Kd (screen)": 10.4},
      {"binder": "F39I (designed binder) SMEEEVEKAAKEYEKKKKEAIEKHLEKLKAKDKEAAERILKELEEAAKEYAKDEAKTMSEEEAKRRAKKYKEKVLLSELSEEEQKEIKEAEEKLVRTILKYVEEAAK", "apparent Kd (screen)": 3.99},
      {"binder": "K18I (designed binder) SMEEEVEKAAKEYEKKKIEAIEKHLEKLKAKDKEAAERFLKELEEAAKEYAKDEAKTMSEEEAKRRAKKYKEKVLLSELSEEEQKEIKEAEEKLVRTILKYVEEAAK", "apparent Kd (screen)": 0.653},
      {"binder": "A67K (designed binder) SMEEEVEKAAKEYEKKKKEAIEKHLEKLKAKDKEAAERFLKELEEAAKEYAKDEAKTMSEEEAKRRKKKYKEKVLLSELSEEEQKEIKEAEEKLVRTILKYVEEAAK", "apparent Kd (screen)": 1.54},
      {"binder": "A51G (designed binder) SMEEEVEKAAKEYEKKKKEAIEKHLEKLKAKDKEAAERFLKELEEAAKEYGKDEAKTMSEEEAKRRAKKYKEKVLLSELSEEEQKEIKEAEEKLVRTILKYVEEAAK", "apparent Kd (screen)": 2.05},
      {"binder": "A36I (designed binder) SMEEEVEKAAKEYEKKKKEAIEKHLEKLKAKDKEAIERFLKELEEAAKEYAKDEAKTMSEEEAKRRAKKYKEKVLLSELSEEEQKEIKEAEEKLVRTILKYVEEAAK", "apparent Kd (screen)": 1.54},
      {"binder": "M58A (designed binder) SMEEEVEKAAKEYEKKKKEAIEKHLEKLKAKDKEAAERFLKELEEAAKEYAKDEAKTASEEEAKRRAKKYKEKVLLSELSEEEQKEIKEAEEKLVRTILKYVEEAAK", "apparent Kd (screen)": 10.4},
      {"binder": "K11M (designed binder) SMEEEVEKAAMEYEKKKKEAIEKHLEKLKAKDKEAAERFLKELEEAAKEYAKDEAKTMSEEEAKRRAKKYKEKVLLSELSEEEQKEIKEAEEKLVRTILKYVEEAAK", "apparent Kd (screen)": 0.446},
      {"binder": "V102H (designed binder) SMEEEVEKAAKEYEKKKKEAIEKHLEKLKAKDKEAAERFLKELEEAAKEYAKDEAKTMSEEEAKRRAKKYKEKVLLSELSEEEQKEIKEAEEKLVRTILKYHEEAAK", "apparent Kd (screen)": 0.49},
      {"binder": "A20F (designed binder) SMEEEVEKAAKEYEKKKKEFIEKHLEKLKAKDKEAAERFLKELEEAAKEYAKDEAKTMSEEEAKRRAKKYKEKVLLSELSEEEQKEIKEAEEKLVRTILKYVEEAAK", "apparent Kd (screen)": 0.446},
      {"binder": "K68I (designed binder) SMEEEVEKAAKEYEKKKKEAIEKHLEKLKAKDKEAAERFLKELEEAAKEYAKDEAKTMSEEEAKRRAIKYKEKVLLSELSEEEQKEIKEAEEKLVRTILKYVEEAAK", "apparent Kd (screen)": 0.869},
      {"binder": "E61D (designed binder) SMEEEVEKAAKEYEKKKKEAIEKHLEKLKAKDKEAAERFLKELEEAAKEYAKDEAKTMSEDEAKRRAKKYKEKVLLSELSEEEQKEIKEAEEKLVRTILKYVEEAAK", "apparent Kd (screen)": 1.05},
      {"binder": "D53M (designed binder) SMEEEVEKAAKEYEKKKKEAIEKHLEKLKAKDKEAAERFLKELEEAAKEYAKMEAKTMSEEEAKRRAKKYKEKVLLSELSEEEQKEIKEAEEKLVRTILKYVEEAAK", "apparent Kd (screen)": 4.83},
      {"binder": "L79R (designed binder) SMEEEVEKAAKEYEKKKKEAIEKHLEKLKAKDKEAAERFLKELEEAAKEYAKDEAKTMSEEEAKRRAKKYKEKVLLSERSEEEQKEIKEAEEKLVRTILKYVEEAAK", "apparent Kd (screen)": 13.8},
      {"binder": "A55N (designed binder) SMEEEVEKAAKEYEKKKKEAIEKHLEKLKAKDKEAAERFLKELEEAAKEYAKDENKTMSEEEAKRRAKKYKEKVLLSELSEEEQKEIKEAEEKLVRTILKYVEEAAK", "apparent Kd (screen)": 11.4},
      {"binder": "E26A (designed binder) SMEEEVEKAAKEYEKKKKEAIEKHLAKLKAKDKEAAERFLKELEEAAKEYAKDEAKTMSEEEAKRRAKKYKEKVLLSELSEEEQKEIKEAEEKLVRTILKYVEEAAK", "apparent Kd (screen)": 1.05},
      {"binder": "E12T (designed binder) SMEEEVEKAAKTYEKKKKEAIEKHLEKLKAKDKEAAERFLKELEEAAKEYAKDEAKTMSEEEAKRRAKKYKEKVLLSELSEEEQKEIKEAEEKLVRTILKYVEEAAK", "apparent Kd (screen)": 1.05}
    ]}
  ]
}
